Patent publication US20090325887A1
One block for each binder: values may come before it.

Molecular target: Cav3.1 channel (α3.1 subunit)
Assay: cell-based or functional assay

Binder: VGLFFALA [γ1 TM1a T12GI16A peptide]
inhibition of Cav3.1 current at 30 µM peptide: 29.4%

Binder: VTLFFILA [γ1 TM1a peptide]
inhibition of Cav3.1 current at 30 µM peptide: 2.4%

Continued, values first:

inhibition of Cav3.1 current at 30 µM peptide: 0.5%
Binder: LLILAVGV [γ6 TM1a SCR peptide]

amplitude of the fast component (Afast) of the unbinding process after 300 µM peptide (bi-exponential fit of current recovery) (normalized fraction): -0.37
apparent affinity (Kapp), overall: 50 µM
dissociation rate estimated from the time constant of Cav3.1 current recovery: 0.167 s⁻¹
fast time constant for binding (fit of current inhibition): < 9 s
fast time constant for unbinding (fit of current recovery): < 9 s
fold increase in affinity between -130 mV and -80 mV holding potential: 3 fold
inhibition of Cav3.1 current at 30 µM peptide (whole-cell patch clamp, HEK/Cav3.1): 45.3%
inhibition of Cav3.1 current at 100 µM peptide, -100 mV: 60%
inhibition of Cav3.1 current at 300 µM peptide: 79.3%
reversible part of the Cav3.1 current inhibition at 30 µM peptide: 73%
time constant of the small slower component of the binding and unbinding processes: > 30 s
Binder: LGLLVAIV [γ6 TM1a peptide]
